# Assay results published in FireProtDB.
# Details: Escherichia coli (strain K12), Thermal, CD, whole UniProt chain shown; for unfolding free energy: reversible: yes
# [1] = pH 0.53, glycine-HCl 10 mM, reversible: yes (95%)
# [2] = pH 0.83, glycine-HCl 10 mM, reversible: yes (96%)
# [3] = pH 1.02, glycine-HCl 10 mM, reversible: yes (98%)
# [4] = pH 1.07, glycine-HCl 10 mM, reversible: yes (88%)
# [5] = pH 1.08, glycine-HCl 10 mM, reversible: yes (102%)
# [6] = pH 1.14, glycine-HCl 10 mM, reversible: yes (101%)
# [7] = pH 1.24, glycine-HCl 10 mM, reversible: yes (103%)
# [8] = pH 1.28, glycine-HCl 10 mM, reversible: yes (100%)
# [9] = pH 1.3, glycine-HCl 10 mM, reversible: yes (101%)
# [10] = pH 1.31, glycine-HCl 10 mM, reversible: yes (94%)
# [11] = pH 1.4, glycine-HCl 10 mM, reversible: yes (91%)
# [12] = pH 1.41, glycine-HCl 10 mM, reversible: yes (98%)
# [13] = pH 1.45, glycine-HCl 10 mM, reversible: yes (101%)
# [14] = pH 1.52, glycine-HCl 10 mM, reversible: yes (107%)
# [15] = pH 1.55, glycine-HCl 10 mM, reversible: yes (93%)
# [16] = pH 1.55, glycine-HCl 10 mM, reversible: yes (104%)
# [17] = pH 1.62, glycine-HCl 10 mM, reversible: yes (100%)
# [18] = pH 1.63, glycine-HCl 10 mM, reversible: yes (108%)
# [19] = pH 1.67, glycine-HCl 10 mM, reversible: yes (108%)
# [20] = pH 1.71, glycine-HCl 10 mM, reversible: yes (98%)
# [21] = pH 1.75, glycine-HCl 10 mM, reversible: yes (90%)
# [22] = pH 1.76, glycine-HCl 10 mM, reversible: yes (101%)
# [23] = pH 1.79, glycine-HCl 10 mM, reversible: yes (104%)
# [24] = pH 1.84, glycine-HCl 10 mM, reversible: yes (110%)
# [25] = pH 1.94, glycine-HCl 10 mM, reversible: yes (88%)
# [26] = pH 2, glycine-HCl 10 mM, reversible: yes (98%)
# [27] = pH 2.03, glycine-HCl 10 mM, reversible: yes (109%)
# [28] = pH 2.04, glycine-HCl 10 mM, reversible: yes (95%)
# [29] = pH 2.15, glycine-HCl 10 mM, reversible: yes (92%)
# [30] = pH 2.18, glycine-HCl 10 mM, reversible: yes (90%)
# [31] = pH 2.22, glycine-HCl 10 mM, reversible: yes (95%)
# [32] = pH 2.39, glycine-HCl 10 mM, reversible: yes (95%)
# [33] = pH 2.45, glycine-HCl 10 mM, reversible: yes (96%)
# [34] = pH 2.53, glycine-HCl 10 mM, reversible: yes (92%)
# [35] = pH 2.65, glycine-HCl 10 mM, reversible: yes (91%)
# [36] = pH 2.79, glycine-HCl 10 mM, reversible: yes (92%)
# [37] = pH 2.86, glycine-HCl 10 mM, reversible: yes (97%)
# [38] = pH 2.95, glycine-HCl 10 mM, reversible: yes (92%)
# [39] = pH 3.06, glycine-HCl 10 mM, reversible: yes (90%)
# [40] = pH 3.1, glycine-HCl 10 mM, reversible: yes (85%)
# [41] = pH 3.11, glycine-HCl 10 mM, reversible: yes (91%)
# [42] = pH 3.18, glycine-HCl 10 mM, reversible: yes (93%)
# [43] = pH 3.25, glycine-HCl 10 mM, reversible: yes (94%)
# [44] = pH 3.26, glycine-HCl 10 mM, reversible: yes (95%)
# [45] = pH 3.34, glycine-HCl 10 mM, reversible: yes (94%)
# [46] = pH 3.38, glycine-HCl 10 mM, reversible: yes (96%)
# [47] = pH 3.64, glycine-HCl 10 mM, reversible: yes (93%)
# [48] = pH 3.98, glycine-HCl 10 mM, reversible: yes (93%)
# [49] = pH 4, glycine-HCl 10 mM, reversible: yes (94%)
protein,measurement,setting,value
"Ribonuclease HI wild type, P0A7Y4 (protein) MLKQVEIFTDGSCLGNPGPGGYGAILRYRGREKTFSAGYTRTTNNRMELMAAIVALEALKEHCEVILSTDSQYVRQGITQWIHNWKKRGWKTADKKPVKNVDLWQRLDAALGQHQIKWEWVKGHAGHPENERCDELARAAAMNPTLEDTGYQVEV",Tm,[1],23.6 °C
same,unfolding enthalpy (van 't Hoff),[1],41.2 kcal/mol
same,Tm,[2],23.9 °C
same,unfolding enthalpy (van 't Hoff),[2],37.3 kcal/mol
same,Tm,[3],20.4 °C
same,unfolding enthalpy (van 't Hoff),[3],34.7 kcal/mol
same,Tm,[4],24.9 °C
same,unfolding enthalpy (van 't Hoff),[4],35.3 kcal/mol
same,Tm,[5],22.3 °C
same,unfolding enthalpy (van 't Hoff),[5],49.6 kcal/mol
same,Tm,[6],21.5 °C
same,unfolding enthalpy (van 't Hoff),[6],51.5 kcal/mol
same,Tm,[7],21.5 °C
same,unfolding enthalpy (van 't Hoff),[7],48.7 kcal/mol
same,Tm,[8],23 °C
same,unfolding enthalpy (van 't Hoff),[8],52.7 kcal/mol
same,Tm,[9],21.2 °C
same,unfolding enthalpy (van 't Hoff),[9],56.9 kcal/mol
same,Tm,[10],20.9 °C
same,unfolding enthalpy (van 't Hoff),[10],45.5 kcal/mol
same,Tm,[11],20.3 °C
same,unfolding enthalpy (van 't Hoff),[11],52.9 kcal/mol
same,Tm,[12],21 °C
same,unfolding enthalpy (van 't Hoff),[12],46.1 kcal/mol
same,Tm,[13],21.8 °C
same,unfolding enthalpy (van 't Hoff),[13],52 kcal/mol
same,Tm,[14],21.5 °C
same,unfolding enthalpy (van 't Hoff),[14],55.3 kcal/mol
same,Tm,[15],21.7 °C
same,unfolding enthalpy (van 't Hoff),[15],53.4 kcal/mol
same,Tm,[16],20.8 °C
same,unfolding enthalpy (van 't Hoff),[16],54.4 kcal/mol
same,Tm,[17],20.6 °C
same,unfolding enthalpy (van 't Hoff),[17],56.4 kcal/mol
same,Tm,[18],21.9 °C
same,unfolding enthalpy (van 't Hoff),[18],55.7 kcal/mol
same,Tm,[19],23.6 °C
same,unfolding enthalpy (van 't Hoff),[19],70.6 kcal/mol
same,Tm,[20],21.1 °C
same,unfolding enthalpy (van 't Hoff),[20],58.3 kcal/mol
same,Tm,[21],21.7 °C
same,unfolding enthalpy (van 't Hoff),[21],72.5 kcal/mol
same,Tm,[22],25.2 °C
same,unfolding enthalpy (van 't Hoff),[22],78.5 kcal/mol
same,Tm,[23],23.9 °C
same,unfolding enthalpy (van 't Hoff),[23],60.7 kcal/mol
same,Tm,[24],23.9 °C
same,unfolding enthalpy (van 't Hoff),[24],64.8 kcal/mol
same,Tm,[25],24.8 °C
same,unfolding enthalpy (van 't Hoff),[25],74.6 kcal/mol
same,unfolding free energy,"pH 2, 10 °C, glycine-HCl 10 mM",2 kcal/mol
same,Tm,[26],26.5 °C
same,unfolding enthalpy (van 't Hoff),[26],61.3 kcal/mol
same,Tm,[27],28.7 °C
same,unfolding enthalpy (van 't Hoff),[27],67.9 kcal/mol
same,Tm,[28],28.5 °C
same,unfolding enthalpy (van 't Hoff),[28],70.6 kcal/mol
same,Tm,[29],29.9 °C
same,unfolding enthalpy (van 't Hoff),[29],67.1 kcal/mol
same,Tm,[30],32.5 °C
same,unfolding enthalpy (van 't Hoff),[30],63.5 kcal/mol
same,Tm,[31],33 °C
same,unfolding enthalpy (van 't Hoff),[31],65.8 kcal/mol
same,Tm,[32],35.5 °C
same,unfolding enthalpy (van 't Hoff),[32],66.7 kcal/mol
same,Tm,[33],35.4 °C
same,unfolding enthalpy (van 't Hoff),[33],71.8 kcal/mol
same,Tm,[34],39.8 °C
same,unfolding enthalpy (van 't Hoff),[34],76 kcal/mol
same,Tm,[35],42.3 °C
same,unfolding enthalpy (van 't Hoff),[35],81.3 kcal/mol
same,Tm,[36],46.1 °C
same,unfolding enthalpy (van 't Hoff),[36],89 kcal/mol
same,Tm,[37],46.4 °C
same,unfolding enthalpy (van 't Hoff),[37],80.5 kcal/mol
same,Tm,[38],50.1 °C
same,unfolding enthalpy (van 't Hoff),[38],91.6 kcal/mol
same,unfolding free energy,"pH 3, 10 °C, glycine-HCl 10 mM",8.14 kcal/mol
same,unfolding free energy,"pH 3, 25 °C, glycine-HCl 10 mM",6.08 kcal/mol
same,Tm,[39],50.7 °C
same,unfolding enthalpy (van 't Hoff),[39],102 kcal/mol
same,Tm,[40],53.9 °C
same,unfolding enthalpy (van 't Hoff),[40],106 kcal/mol
same,Tm,[41],52.2 °C
same,unfolding enthalpy (van 't Hoff),[41],101 kcal/mol
same,Tm,[42],54 °C
same,unfolding enthalpy (van 't Hoff),[42],102 kcal/mol
same,Tm,[43],55.1 °C
same,unfolding enthalpy (van 't Hoff),[43],109 kcal/mol
same,Tm,[44],58.9 °C
same,unfolding enthalpy (van 't Hoff),[44],96.6 kcal/mol
same,Tm,[45],57.6 °C
same,unfolding enthalpy (van 't Hoff),[45],100 kcal/mol
same,Tm,[46],57.4 °C
same,unfolding enthalpy (van 't Hoff),[46],101 kcal/mol
same,Tm,[47],62.1 °C
same,unfolding enthalpy (van 't Hoff),[47],106 kcal/mol
same,Tm,[48],66 °C
same,unfolding enthalpy (van 't Hoff),[48],125 kcal/mol
same,unfolding free energy,"pH 4, 10 °C, glycine/HCl 10 mM",12 kcal/mol
same,unfolding free energy,"pH 4, 25 °C, glycine-HCl 10 mM",10 kcal/mol
same,Tm,[49],66.6 °C
same,unfolding enthalpy (van 't Hoff),[49],112 kcal/mol
